According to publication PMC6373445, “Identification and characterization of GH11 xylanase and GH43 xylosidase from the chytridiomycetous fungus, Rhizophlyctis rosea” (Applied Microbiology and Biotechnology, 2018):

T1: RrXyl43A (Rhizophlyctis rosea, UniProt A0A2U8LMQ1)
T1 construct: full-length 325 residues, no native signal peptide; codon-optimized in pPICZalphaA with alpha-factor signal, His-tagged, Pichia pastoris KM71H; theoretical 39 kDa with tag; active as monomer; not N-glycosylated
T1 sequence (A0A2U8LMQ1 1-325): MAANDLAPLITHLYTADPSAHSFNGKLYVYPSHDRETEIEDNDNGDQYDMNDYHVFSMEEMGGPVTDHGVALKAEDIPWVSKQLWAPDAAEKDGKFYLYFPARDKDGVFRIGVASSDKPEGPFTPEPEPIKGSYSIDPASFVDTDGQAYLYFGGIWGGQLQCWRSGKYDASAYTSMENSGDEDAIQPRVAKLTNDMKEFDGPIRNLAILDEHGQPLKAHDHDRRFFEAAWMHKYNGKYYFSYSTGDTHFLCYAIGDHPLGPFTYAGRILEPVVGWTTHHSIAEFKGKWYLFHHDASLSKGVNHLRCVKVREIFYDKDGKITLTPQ

B1: RrXyl43A (Rhizophlyctis rosea) (protein)
chain: T1 sequence (A0A2U8LMQ1 1-325)
notes: full-length 325 residues, no native signal peptide; codon-optimized in pPICZalphaA with alpha-factor signal, His-tagged, Pichia pastoris KM71H; theoretical 39 kDa with tag; active as monomer; not N-glycosylated

What was measured:
RrXyl43A = molecular target: T1, RrXyl43A; assay: residual pNPX hydrolysis, absorbance […] nm; format: biochemical; conditions: read-out: % residual activity at 100 mM
purified protein = substrate: O=[N+]([O-])c1ccc(O[C@@H]2OC[C@@H](O)[C@H](O)[C@H]2O)cc1; assay: purified protein; format: biochemical, Rhizophlyctis rosea; conditions: McIlvaine buffer pH 7, 25 °C, 10 min

| Molecule | remaining activity at 100000 µM (RrXyl43A) | Km (purified protein) | Vmax (purified protein) | kcat (purified protein) |
| --- | --- | --- | --- | --- |
| OC1OC[C@@H](O)[C@H](O)[C@H]1O (stereo partly shown) [xylose] | 51% | – | – | – |
| B1 | – | 1340 ± 170 µM | 34.6 µmol/min/mg | 21.2 ± 0.89 s⁻¹ |
